Data: article PMC2793330 (Journal of structural biology, 2009)

T1: Spc98p, without fluorescent protein tag (S. cerevisiae, UniProt P53540 1-846)
T1 sequence (looked up): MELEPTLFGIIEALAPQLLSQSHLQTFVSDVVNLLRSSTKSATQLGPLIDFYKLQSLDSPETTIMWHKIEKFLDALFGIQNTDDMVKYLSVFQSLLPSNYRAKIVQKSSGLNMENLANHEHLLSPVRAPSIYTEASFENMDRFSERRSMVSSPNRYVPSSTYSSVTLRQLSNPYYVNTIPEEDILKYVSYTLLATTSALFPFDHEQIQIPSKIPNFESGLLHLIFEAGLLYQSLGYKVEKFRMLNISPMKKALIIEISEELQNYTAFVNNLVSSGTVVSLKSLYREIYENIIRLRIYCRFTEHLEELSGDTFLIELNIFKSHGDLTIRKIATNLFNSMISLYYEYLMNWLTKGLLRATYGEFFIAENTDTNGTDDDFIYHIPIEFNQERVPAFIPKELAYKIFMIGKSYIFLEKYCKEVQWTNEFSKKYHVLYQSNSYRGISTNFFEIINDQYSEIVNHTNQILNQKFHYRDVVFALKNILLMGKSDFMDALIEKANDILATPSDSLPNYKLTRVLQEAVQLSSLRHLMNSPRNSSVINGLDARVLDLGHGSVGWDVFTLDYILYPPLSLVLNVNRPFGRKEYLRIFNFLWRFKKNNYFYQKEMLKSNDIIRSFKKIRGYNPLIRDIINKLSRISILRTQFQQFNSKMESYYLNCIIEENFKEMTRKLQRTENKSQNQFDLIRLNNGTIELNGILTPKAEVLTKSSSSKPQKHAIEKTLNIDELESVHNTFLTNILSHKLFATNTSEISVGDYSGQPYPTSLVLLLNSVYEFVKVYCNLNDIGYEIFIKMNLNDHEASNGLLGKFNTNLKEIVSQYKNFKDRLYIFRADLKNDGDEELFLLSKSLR

T2: Spc98p with CFP on its C-terminus (of γ-TuSC:Spc98pCFP) (S. cerevisiae, UniProt P53540 1-846)
T2 sequence (looked up): T1 sequence (looked up)

T3: Spc98p with CFP on its N-terminus (of γ-TuSC:CFPSpc98p) (S. cerevisiae, UniProt P53540 1-846)
T3 sequence (looked up): T1 sequence (looked up)

B1: γ-tubulin (Tub4p), His-tagged, as in the fluorescent-protein-tagged γ-TuSC constructs (natural protein, S. cerevisiae, UniProt P53378 1-473, looked up)
chain: MGGEIITLQAGQCGNHVGKFLWSQLAKEHAIGTDGLSQLPDSSTERDDDTKPFFRENSRNKFTPRAIMMDSEPSVIADVENTFRGFFDPRNTWVASDGASAGNSWANGYDIGTRNQDDILNKIDKEIDSTDNFEGFQLLHSVAGGTGSGLGSNLLEALCDRYPKKILTTYSVFPARSSEVVVQSYNTILALRRLIEDSDATVVFDNASLLNISGKVFRNPNIDLQHTNQLISTIISSVTNSIRFPSYMYSSMSSIYSTLIPSPELHFLSPSFTPFTSDYIHDDIAHKGHSSYDVMLDLLDPSNSLVSTAMNNPTYFNVYNTIIGNVEPRQISRAMTKLQQRIKFPSWSSSAMHVNIGRRSPYLPLQPNENEVSGMMLSNMSTVVNVFENACNTFDKVFAKGAFLNNYNVGDLFQSMQNVQDEFAESREVVQSLMEDYVAAEQDSYLDDVLVDDENMVGELEEDLDADGDHKLV
B2: γ-tubulin (Tub4p), His-tagged with the longer tag linker, as in the γ-TuSC without fluorescent protein tag (natural protein, S. cerevisiae, UniProt P53378 1-473, looked up)
chain: B1 chain
B3: Spc97p with YFP on its N-terminus (of γ-TuSC:YFPSpc97p) (natural protein, S. cerevisiae, UniProt P38863 1-823, looked up)
chain: MEIKEVDDRAELLRYTNNIPLLGKLVNHQPLWSTNPKLKSFSLEKISAPDQRRVQEALVVKDLLNVLIGLEGTYIRYFNDYEPSDPETPIEFKIAKKMDPSFKTFSRRIVRYGKQYMILTRAYEKWSDTSFGMVLQRFAYEIRRFLEDVYLKTLVERLERDFNKVPNFSIRELEQIINETEVNKQMELLYNIYEEIFREIEERRTNQSSQEDFNNFMDSMKNESSLHLRLMVAFDTTVYPVPKGGAILKIFQQKILENLGDRSSVMFLKKLLNNISQDYCTMLYEWLTQGILNDPYQEFMTYDDLEGKTDNIFDTRDRAWDTQYFIRKDVLLRDCDSEEDKNLLFKMLRTGILLKVVRASLQIPTIPSNSSDITIQEINDFADLMEGSNLELYVDKCYSRANEIFLKLFFQGYDLINVLKHLQQIFLGYQSGHNVLKFLTKNMGELTKHYRNDNNANYDKLLQNFELERQSENPNNLMRQLLMIQFDTETLPQVLSHYLQIYPEVPENNSANDDSDPLMHANNFKNMNAILFDELSKERTGAYHGSNLELYTPKSAIYHLKFDINIPYPLNIIISRTCMIKYQIILRYQLVLQYHSRLLDETWMDLNKTPSWKYRGYSHTVKRRIVRATRVLHAKMNHFIKTIMEYFNQNVIDKEVYSLEKCYRNPTLAVAIQNELEGGLTNIMTNRCLSDLIPLQLQIFDIVYKFCKFIKSMRAKLCQLDPVLYEKHKSGMMKTLNEGYRTNNGGQEDVGYQEDAALELIQKLIEYISNASSIFRKCLINFTQELSTEKFDFYDSSSVDAAGIERVLYSIVPPRSASASSQR
B4: Spc97p with YFP on its C-terminus (of γ-TuSC:Spc97pYFP) (natural protein, S. cerevisiae, UniProt P38863 1-823, looked up)
chain: B3 chain
B5: Spc97p, without fluorescent protein tag (natural protein, S. cerevisiae, UniProt P38863 1-823, looked up)
chain: B3 chain

Assays:
Experiment in all cases: co-purification, SDS-PAGE with band densitometry
[1] = target: B5
[2] = target: T1, Spc98p, without fluorescent protein tag
[3] = target: T2, Spc98p with CFP on its C-terminus (of …)
[4] = target: B3
[5] = target: T3, Spc98p with CFP on its N-terminus (of …)
[6] = target: B4

| Binder | stoichiometry N [1] | stoichiometry N [2] | stoichiometry N [3] | stoichiometry N [4] | stoichiometry N [5] | stoichiometry N [6] |
| --- | --- | --- | --- | --- | --- | --- |
| B1 | 2 | 2 | 2 | 2 | 2 | 2 |
| B2 | 2 | 2 | – | – | – | – |
| B3 | – | 1 | – | – | – | – |
| B4 | – | 1 | – | – | – | – |
| B5 | – | 1 | 1 | – | 1 | – |
